Experiments:
[1] = molecular target: full-length TFPI (fl-TFPI, TFPI alpha) (Homo sapiens) (UniProt P10646); assay: SPR; settings: biotinylated, nucleotide sequence identical to BAX 499; ka 6.7e7 1/Ms, kd 6.6e-4 1/s; 37 C, HBS pH 7.4, 0.1% P20, 3 mM CaCl2; aptamer immobilized
[2] = molecular target: full-length TFPI (fl-TFPI, TFPI alpha) (Homo sapiens) (UniProt P10646); assay: inhibition; settings: PEG

full-length TFPI (fl-TFPI, TFPI alpha) (Homo sapiens), sequence (P10646 29-304): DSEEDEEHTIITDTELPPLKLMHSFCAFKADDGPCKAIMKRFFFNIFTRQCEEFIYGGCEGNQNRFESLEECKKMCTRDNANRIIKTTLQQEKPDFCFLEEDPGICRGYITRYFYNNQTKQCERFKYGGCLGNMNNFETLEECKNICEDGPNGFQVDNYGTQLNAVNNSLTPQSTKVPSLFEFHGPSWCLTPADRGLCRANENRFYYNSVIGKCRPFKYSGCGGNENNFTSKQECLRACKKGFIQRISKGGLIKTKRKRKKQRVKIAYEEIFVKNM

Substance | Kd [1] [nM] | Kd ([2]; apparent Kd from relief of TFPI inhibition of TF/FVIIa, 12 nM TFPI, FXa independent, TFPI source not stated in this example) [nM] | activity ([2]; aptamer giving about 50% recovery of extrinsic FXase activity with 3 nM TFPI, 75-80% recovery at saturation) [nM] | EC50 ([2]; extrinsic tenase assay at 0.25 nM TFPI, maximal reversal 58% at 1000 nM, EC50 rises with TFPI level) [nM]
ARC28635 | 0.015 |  |  | 
BAX 499 |  | 1.2 | 50 | 12
